Experimental data from patent US7919104B2, “Functional epitopes of Streptococcus pneumoniae PsaA antigen and uses thereof” (priority 2005, dated 2011).
Entries after “also recorded” stand apart in the source; their conditions may differ.

Columns and labels:
P4 beads [1] = biological target: T1, P4 beads (Streptococcus pneumoniae serotype 4, UniProt P0A4G2); assay: Mouse immunization: serum % IA of P4 beads (anti P4 activity); assay type: in vivo
T1 sequence (P0A4G2 251-278 D258K/D259R): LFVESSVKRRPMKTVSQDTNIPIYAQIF
Description: (§1) Serum inhibition of adherence assays were performed as previously described for the inhibition of pneumococcal adherence (Romero-Steiner). Two buffer solutions were found suitable for this type of assay: solution 1 (EMEM medium—Hanks buffered saline with Ca++ and Mg++ supplemented with 0.2% BSA) as previously reported (Romero-Steiner) or solution 2 (PBS 10 mM, pH7.2-7.4 supplemented with 1% BSA and 0.5% BSA for washes) as described below. Use of one buffer solution in preference to the other depended on availability of BSA (Sigma cat #A2153). Alternative preparations of BSA were evaluated but were not found suitable for this assay due to toxicity to the cell monolayer. Briefly, confluent monolayers of Detroit 562 cells were washed once with 130 μl/well of PBS buffer+0.5% BSA. A 45 μl volume of PBS buffer+1% BSA was added to each well and the plate was incubated while preparing serum dilutions in a replicate plate (U-bottom Costar). Serum dilutions in the replica plate could be performed in a 2-fold or 3-fold dilution scheme. For the 2-fold dilution scheme, a 10 μl volume of test or control serum was added to the first row of wells (B2-B11) already containing 70 μl of PBS+1% BSA. A 40 μl volume of PBS+1% BSA was added to the remainder of the wells including the outer perimeter. The sera from row B was serially diluted into rows C-F with a multichannel pipetor set at 40 μl (2-fold). The last 401 was discarded into the waste. Serum was not added to the adherence control wells (row G or column 11). A 20 μl volume of the optimal fluosphere dilution (usually 1:100 or 1:150, containing ˜3,100 fluospheres) was added to each well, including serum-free controls. The fluosphere suspension was sonicated for 3 minutes prior to addition to the center of the wells to generate a single fluosphere suspension. The microtiter plate was mixed by tapping the sides gently and incubated for 15 minutes at 37° C., 5% CO2. At the end of the incubation period, 55 μl/well was replica plated into the microtiter plate containing the washed monolayers containing 45 μl of PBS+1% BSA. The final well volume was always adjusted to 100-μl volume regardless of the serum dilution scheme used (2-fold or 3-fold) to control the reproducibility of fluosphere adherence The plate was mixed by tapping the sides gently and incubated for 2 hours at 37° C., 5% CO2. Following incubation, plates were washed 5 times with 130 μl/well of PBS+0.5% BSA. The plates were allowed to dry before reading in a fluorometer (BioTek, FLX 800) at 485 nm for excitation and emission at 520 nm. The percent inhibition of adherence (IA) was calculated as compared to adherence controls. The following formula was used: % IA=100-(test well FU×100)/controls mean FU.

P4 beads [2] = biological target: T2, P4 beads (Streptococcus pneumoniae serotype 4, UniProt P0A4G2, D258K/D259R); assay: as above; assay type: in vivo; details: sera 1:32 dilution
T2 sequence (P0A4G2 251-278 D258K/D259R): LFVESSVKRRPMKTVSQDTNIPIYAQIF
Description: as §1

[3] = system: HL-60, RAW 264.7 and Detroit 562 cells; assay: P4 activation of phagocytes and epithelial cells (cytokine release, TEM); assay type: cell-based
Description: Cell suspensions of HL-60 (promyelocytes) and RAW 264.7 (monocytes), and Detroit 562 cells (nasopharyngeal epithelial cells) were centrifuged at 1000 rpm-10 min and the pellet was resuspended in 1 ml PBS buffer. To this, P4 solution (1 mg/ml) was added at 10% (v/v) concentration, mixed by inverting few times and incubated at 37° C., 5% CO2 for 15 min (HL-60 and RAW) or 30 min (Detroit 562). After incubation, the cells were centrifuged again and the supernatant was analyzed for cytokines and the cell pellet was washed once in PBS, fixed in 2% glutaraldehyde and processed for transmission electron microscopic (TEM) analysis.

[4] = system: LEC-5 and NEO fibroblast cell lines; assay: Growth of fibroblasts with P4 treated cell supernatant; assay type: cell-based; details: supernatant of P4 treated cells with higher FGFbasic, different concentrations
Description: 2 fibroblast cell lines, LEC-5 and NEO, were used. These cells were grown in a 96 well titer plates until they become confluent (˜6 days). To this, the P4 treated cell supernatant that had higher concentration of FGFbasic was added at different concentrations and the growth was monitored fluormetrically with the help of a fluorometric metabolic indicator.

Detroit 562 cells = assay: Competitive inhibition of adherence of rPsaA-coated fluospheres to Detroit 562 cells; assay type: cell-based, human; details: competitor 100 μg (so in the source)
PsaA beads = biological target: T3, PsaA beads (Streptococcus pneumoniae serotype 4, UniProt P0A4G2); assay: Mouse immunization: serum % IA of PsaA beads (anti PsaA activity); assay type: in vivo
T3 construct: Both, rPsaA (MW 34,079 daltons) and the synthetic peptides were non-lipidated; purchased Aventis-Pasteur, Toronto, Ontario, Canada (donated)
T3 sequence (P0A4G2 20-309): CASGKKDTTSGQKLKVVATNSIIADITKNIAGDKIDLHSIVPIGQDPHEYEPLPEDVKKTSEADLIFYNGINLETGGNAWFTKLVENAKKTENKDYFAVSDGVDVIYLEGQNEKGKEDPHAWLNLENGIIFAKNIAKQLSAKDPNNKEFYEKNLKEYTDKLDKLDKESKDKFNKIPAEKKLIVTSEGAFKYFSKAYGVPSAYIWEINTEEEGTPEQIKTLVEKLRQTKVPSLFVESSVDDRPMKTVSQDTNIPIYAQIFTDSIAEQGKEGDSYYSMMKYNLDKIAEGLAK
Description: as §1

[5] = mice serum dilution factor 8, 7th day
[6] = mice serum dilution factor 8, 11th day
[7] = mice serum dilution factor 16, 7th day
[8] = mice serum dilution factor 16, 11th day
[9] = mice serum dilution factor 32, 7th day
[10] = mice serum dilution factor 32, 11th day
[11] = mice serum dilution factor 64, 7th day
[12] = mice serum dilution factor 64, 11th day
[13] = mice serum dilution factor 128, 7th day
[14] = mice serum dilution factor 128, 11th day
[15] = mice serum dilution factor 256, 7th day
[16] = mice serum dilution factor 256, 11th day
[17] = mice serum dilution factor 512, 7th day
[18] = mice serum dilution factor 512, 11th day
[19] = mice serum dilution factor 1024, 7th day
[20] = mice serum dilution factor 1024, 11th day
[21] = mice serum dilution factor 2048, 7th day
[22] = mice serum dilution factor 2048, 11th day
[23] = mice serum dilution factor 4096, 7th day
[24] = mice serum dilution factor 4096, 11th day
[25] = P4 solution (1 mg/ml) at 10% (v/v), 15 or 30 min

LFVESSVKRRPMKTVSQDTNIPIYAQIF [P4, non-branched synthetic peptide, PsaA amino acid residues 251 to 278 with DD changed to KR]
Anti P4 activity (% IA of P4 beads) (P4 beads [1]; [5]): 81% | Anti P4 activity (% IA of P4 beads) (P4 beads [1]; [6]): 95% | Anti P4 activity (% IA of P4 beads) (P4 beads [1]; [7]): 40% | Anti P4 activity (% IA of P4 beads) (P4 beads [1]; [8]): 44% | Anti P4 activity (% IA of P4 beads) (P4 beads [1]; [9]): 31% | Anti P4 activity (% IA of P4 beads) (P4 beads [1]; [10]): 45% | Anti P4 activity (% IA of P4 beads) (P4 beads [1]; [11]): 0% | Anti P4 activity (% IA of P4 beads) (P4 beads [1]; [12]): 4% | Anti P4 activity (% IA of P4 beads) (P4 beads [1]; [13]): 0% | Anti P4 activity (% IA of P4 beads) (P4 beads [1]; [14]): 0% | Anti P4 activity (% IA of P4 beads) (P4 beads [1]; [15]): 0% | Anti P4 activity (% IA of P4 beads) (P4 beads [1]; [16]): 0% | Anti P4 activity (% IA of P4 beads) (P4 beads [1]; [17]): 0% | Anti P4 activity (% IA of P4 beads) (P4 beads [1]; [18]): 0% | Anti P4 activity (% IA of P4 beads) (P4 beads [1]; [19]): 0% | Anti P4 activity (% IA of P4 beads) (P4 beads [1]; [20]): 0% | Anti P4 activity (% IA of P4 beads) (P4 beads [1]; [21]): 0% | Anti P4 activity (% IA of P4 beads) (P4 beads [1]; [22]): 0% | Anti P4 activity (% IA of P4 beads) (P4 beads [1]; [23]): 0% | Anti P4 activity (% IA of P4 beads) (P4 beads [1]; [24]): 0% | inhibition of adherence detected in sera from immunized mice (P4 beads [2]): Up to 45% | bacterial adherence to P4 treated NP cells ([3]; Detroit 562 NP cells exposed to P4 solution): enhancement in bacterial adherence | EGF release/production [3, 25]: brings down EGF production; also recorded: down regulated | FGFbasic release/production [3, 25]: up regulated | IL8 release/production [3, 25]: down regulated | cell morphology by TEM and light photomicrographs [3, 25]: phagocytic activation | growth of fibroblasts (fluorometric metabolic indicator) [4]: enhancement in the growth | reduction in FU of PsaA-coated beads (Detroit 562 cells): 68%

B1: rPsaA: purified recombinant pneumococcal surface adhesin A, non-lipidated, donated by Aventis-Pasteur (protein)
chain: T3 sequence (P0A4G2 20-309)
Anti PsaA activity (% IA of PsaA beads) (PsaA beads; [5]): 84% | Anti PsaA activity (% IA of PsaA beads) (PsaA beads; [6]): 79% | Anti PsaA activity (% IA of PsaA beads) (PsaA beads; [7]): 47% | Anti PsaA activity (% IA of PsaA beads) (PsaA beads; [8]): 37% | Anti PsaA activity (% IA of PsaA beads) (PsaA beads; [9]): 42% | Anti PsaA activity (% IA of PsaA beads) (PsaA beads; [10]): 34% | Anti PsaA activity (% IA of PsaA beads) (PsaA beads; [11]): 0% | Anti PsaA activity (% IA of PsaA beads) (PsaA beads; [12]): 11% | Anti PsaA activity (% IA of PsaA beads) (PsaA beads; [13]): 0% | Anti PsaA activity (% IA of PsaA beads) (PsaA beads; [14]): 1% | Anti PsaA activity (% IA of PsaA beads) (PsaA beads; [15]): 0% | Anti PsaA activity (% IA of PsaA beads) (PsaA beads; [16]): 0% | Anti PsaA activity (% IA of PsaA beads) (PsaA beads; [17]): 0% | Anti PsaA activity (% IA of PsaA beads) (PsaA beads; [18]): 0% | Anti PsaA activity (% IA of PsaA beads) (PsaA beads; [19]): 0% | Anti PsaA activity (% IA of PsaA beads) (PsaA beads; [20]): 0% | Anti PsaA activity (% IA of PsaA beads) (PsaA beads; [21]): 0% | Anti PsaA activity (% IA of PsaA beads) (PsaA beads; [22]): 4% | Anti PsaA activity (% IA of PsaA beads) (PsaA beads; [23]): 0% | Anti PsaA activity (% IA of PsaA beads) (PsaA beads; [24]): 18%
